This note sets out measurements from PMC3597684.

Assay in all cases: EMSA
For data set [1], the target named is T1, ParBPput-R194A (ParBPput-G291-R194A) (Pseudomonas putida, UniProt P0A152 1-290, R194A).
T1 sequence: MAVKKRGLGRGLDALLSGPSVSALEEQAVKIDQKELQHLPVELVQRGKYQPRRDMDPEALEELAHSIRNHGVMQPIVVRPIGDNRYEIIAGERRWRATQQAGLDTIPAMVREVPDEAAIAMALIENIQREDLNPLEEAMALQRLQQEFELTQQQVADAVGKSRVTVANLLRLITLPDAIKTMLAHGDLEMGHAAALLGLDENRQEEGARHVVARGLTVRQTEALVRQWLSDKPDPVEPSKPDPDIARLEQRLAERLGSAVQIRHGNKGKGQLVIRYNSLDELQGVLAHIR

In data set [2] the target is T2, SopB (SopB-G324) (plasmid F (Escherichia coli), UniProt P62558 1-323).
T2 sequence: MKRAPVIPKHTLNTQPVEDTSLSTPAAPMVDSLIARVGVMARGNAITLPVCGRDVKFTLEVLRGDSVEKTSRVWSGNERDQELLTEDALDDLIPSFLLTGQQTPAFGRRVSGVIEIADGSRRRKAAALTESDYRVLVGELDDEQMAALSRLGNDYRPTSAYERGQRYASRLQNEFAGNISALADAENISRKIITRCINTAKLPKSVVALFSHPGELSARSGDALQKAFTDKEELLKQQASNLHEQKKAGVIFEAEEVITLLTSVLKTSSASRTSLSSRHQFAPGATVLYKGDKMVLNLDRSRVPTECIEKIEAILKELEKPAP

Data set [3] addresses T3, SopB-R219A (plasmid F (Escherichia coli), UniProt P62558 1-323, R219A).
T3 sequence: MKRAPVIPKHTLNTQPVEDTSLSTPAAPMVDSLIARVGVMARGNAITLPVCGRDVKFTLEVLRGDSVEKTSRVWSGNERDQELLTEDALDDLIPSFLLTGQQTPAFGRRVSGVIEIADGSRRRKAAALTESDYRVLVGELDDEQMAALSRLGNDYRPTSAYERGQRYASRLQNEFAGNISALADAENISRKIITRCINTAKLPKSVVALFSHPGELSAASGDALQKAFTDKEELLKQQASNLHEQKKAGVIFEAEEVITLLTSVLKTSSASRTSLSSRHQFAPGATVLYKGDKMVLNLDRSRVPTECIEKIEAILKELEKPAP

Data set [4] deals with T4, SopB-R219K (plasmid F (Escherichia coli), UniProt P62558 1-323, R219K).
T4 sequence: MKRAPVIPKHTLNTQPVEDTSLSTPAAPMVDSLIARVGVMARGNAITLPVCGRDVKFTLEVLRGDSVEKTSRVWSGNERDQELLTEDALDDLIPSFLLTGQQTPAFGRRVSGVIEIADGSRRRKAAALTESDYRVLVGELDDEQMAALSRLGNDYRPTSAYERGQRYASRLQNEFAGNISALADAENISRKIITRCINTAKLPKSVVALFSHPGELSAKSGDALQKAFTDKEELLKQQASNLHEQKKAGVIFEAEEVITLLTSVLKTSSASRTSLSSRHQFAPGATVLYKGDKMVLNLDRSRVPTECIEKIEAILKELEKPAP

B1: parS66 (Pput parS; assignment from listing order) (dsDNA)
DNA 1: ATTAGTCTGTTCCACGTGGAACACTCGTAT
DNA 2: ATACGAGTGTTCCACGTGGAACAGACTAAT
For B1, the binding result in data set [1] is “no binding”.

B2: sopC2 (dsDNA)
DNA 1: ATTAGTCTGGGACCACGGTCCCACTCGTAT
DNA 2: ATACGAGTGGGACCGTGGTCCCAGACTAAT
Consider B2, for which, in data set [2], the binding result was “binds”. In addition, the results for the binding signal in data set [3] and in data set [4] were > 200 fold loss vs wild-type SopB and ~100 fold loss vs wild-type SopB, respectively.
